Results published in patent publication US20220332804A1 (CSL INNOVATION, published 2022).
Changes are numbered by the printed parent chain.

Experiments:
Experiment in all cases: SPR, KD relative to WT C2;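 also: biacore SPR at 37 °C, anti-C2 mAbs captured via immobilised goat anti-human IgG, C2 alanine or serine surface mutants as analytes, 1:1 model fitted, double-referenced sensograms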
human C2 D417A = molecular target: T1, human C2 D417A (human, UniProt P06681 21-752)
T1 sequence: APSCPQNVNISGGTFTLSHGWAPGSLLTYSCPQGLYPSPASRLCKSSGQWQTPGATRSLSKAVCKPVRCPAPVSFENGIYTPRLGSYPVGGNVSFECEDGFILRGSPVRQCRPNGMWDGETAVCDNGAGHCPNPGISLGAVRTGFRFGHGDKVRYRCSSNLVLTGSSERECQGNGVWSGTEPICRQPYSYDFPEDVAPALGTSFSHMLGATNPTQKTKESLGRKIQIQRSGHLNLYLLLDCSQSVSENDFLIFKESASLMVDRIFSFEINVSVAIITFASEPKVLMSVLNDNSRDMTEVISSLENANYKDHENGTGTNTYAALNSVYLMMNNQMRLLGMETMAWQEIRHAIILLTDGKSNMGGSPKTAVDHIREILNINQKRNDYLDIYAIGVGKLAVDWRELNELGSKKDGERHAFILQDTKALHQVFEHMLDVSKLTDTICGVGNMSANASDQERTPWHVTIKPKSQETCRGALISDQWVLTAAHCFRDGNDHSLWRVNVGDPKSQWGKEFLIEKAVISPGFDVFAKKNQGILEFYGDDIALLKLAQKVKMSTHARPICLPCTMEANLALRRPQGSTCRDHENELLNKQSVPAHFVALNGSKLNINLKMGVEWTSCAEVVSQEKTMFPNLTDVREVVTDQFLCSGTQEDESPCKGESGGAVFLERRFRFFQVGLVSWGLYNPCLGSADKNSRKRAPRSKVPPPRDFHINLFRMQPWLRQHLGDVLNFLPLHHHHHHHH

human C2 G466A = molecular target: T2, human C2 G466A (human, UniProt P06681 21-752)
T2 sequence: T1 sequence with A397D, G446A

human C2 K485A = molecular target: T3, human C2 K485A (human, UniProt P06681 21-752)
T3 sequence: T1 sequence with A397D, K465A

human C2 G530A = molecular target: T4, human C2 G530A (human, UniProt P06681 21-752)
T4 sequence: T1 sequence with A397D, G510A

B1: RF16-226 (antibody, human IgG4 S228P, lambda)
heavy: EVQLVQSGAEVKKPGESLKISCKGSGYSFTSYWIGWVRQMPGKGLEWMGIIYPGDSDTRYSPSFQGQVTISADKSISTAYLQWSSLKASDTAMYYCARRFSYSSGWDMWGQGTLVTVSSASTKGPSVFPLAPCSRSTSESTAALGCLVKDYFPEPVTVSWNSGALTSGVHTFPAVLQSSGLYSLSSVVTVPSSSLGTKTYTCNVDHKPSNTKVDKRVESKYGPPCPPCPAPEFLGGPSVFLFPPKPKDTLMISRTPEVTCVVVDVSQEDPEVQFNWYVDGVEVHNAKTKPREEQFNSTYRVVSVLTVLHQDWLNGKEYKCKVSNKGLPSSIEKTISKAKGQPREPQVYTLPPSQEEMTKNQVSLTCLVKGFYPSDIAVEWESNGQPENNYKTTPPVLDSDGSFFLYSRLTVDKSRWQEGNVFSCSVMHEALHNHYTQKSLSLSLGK
light: SYELTQPPSVSVSPGQTARITCSGDALTSKYVAWYQQKSGLAPLLVIYEDTRRPSGIPAKFSGSSSGSVATLTISGAHGDDEADYYCYSTDASGHQRVFGGGTKLTVLSQPKAAPSVTLFPPSSEELQANKATLVCLISDFYPGAVTVAWKADGSPVKAGVETTKPSKQSNNKYAASSYLSLTPEQWKSHRSYSCQVTHEGSTVEKTVAPTECS
notes: pH-dependent anti-C2 antibody from a phage display library; also called WT
Fold diff (human C2 D417A): 2 fold | Fold diff (human C2 G466A): 3 fold | Fold diff (human C2 K485A): 1 fold | Fold diff (human C2 G530A): 2 fold
